The record followed here is US20200362033A1.

To fix the notation:
B1: #101H1L2hIgG2 (antibody)
heavy: EVQLVESGGGLVQPGRSLRLSCAASGFTFSDYYMAWVRQAPGKGLEWVATISYDGSNTYYRDSVKGRFTISRDNSKSTLYLQMNSLRAGDTAVYYCARFYNNYYFDYWGQGTLVTVSSASTKGPSVFPLAPCSRSTSESTAALGCLVKDYFPEPVTVSWNSGALTSGVHTFPAVLQSSGLYSLSSVVTVPSSNFGTQTYTCNVDHKPSNTKVDKTVERKCCVECPPCPAPPVAGPSVFLFPPKPKDTLMISRTPEVTCVVVDVSHEDPEVQFNWYVDGVEVHNAKTKPREEQFNSTFRVVSVLTVVHQDWLNGKEYKCKVSNKGLPAPIEKTISKTKGQPREPQVYTLPPSREEMTKNQVSLTCLVKGFYPSDIAVEWESNGQPENNYKTTPPMLDSDGSFFLYSKLTVDKSRWQQGNVFSCSVMHEALHNHYTQKSLSLSPGK
light: DIQMTQSPSSLSASVGDRVTINCKASQNLYKNLAWYQQKPGKAPKLLIDNANSLQTGIPSRFSGSGSGTDFTLTISSLQPEDFATYFCQQYYSGSYTFGQGTKVEIKRTVAAPSVFIFPPSDEQLKSGTASVVCLLNNFYPREAKVQWKVDNALQSGNSQESVTEQDSKDSTYSLSSTLTLSKADYEKHKVYACEVTHQGLSSPVTKSFNRGEC
B2: #84H1L2hIgG2 (antibody)
heavy: EVQLVESGGGLVQPGGSLRLSCAASGFTFSNYYMAWVRQAPGKGLEWVSTITTSGSRPYYADSVKGRFTISRDNSKNTLYLQMNSLRAEDTAVYYCARHIYYYDGYPFAYWGQGTLVTVSSASTKGPSVFPLAPCSRSTSESTAALGCLVKDYFPEPVTVSWNSGALTSGVHTFPAVLQSSGLYSLSSVVTVPSSNFGTQTYTCNVDHKPSNTKVDKTVERKCCVECPPCPAPPVAGPSVFLFPPKPKDTLMISRTPEVTCVVVDVSHEDPEVQFNWYVDGVEVHNAKTKPREEQFNSTFRVVSVLTVVHQDWLNGKEYKCKVSNKGLPAPIEKTISKTKGQPREPQVYTLPPSREEMTKNQVSLTCLVKGFYPSDIAVEWESNGQPENNYKTTPPMLDSDGSFFLYSKLTVDKSRWQQGNVFSCSVMHEALHNHYTQKSLSLSPGK
light: DVQMTQSPSSLSASVGDRVTITCKASKSISNNLAWYQQKPGKANKLLIHSGSTLQSGTPSRFSGSGSGTDFTLTISSLQPEDFATYYCQQYNEYPLTFGQGTKVEIKRTVAAPSVFIFPPSDEQLKSGTASVVCLLNNFYPREAKVQWKVDNALQSGNSQESVTEQDSKDSTYSLSSTLTLSKADYEKHKVYACEVTHQGLSSPVTKSFNRGEC
B3: #131H2L2hIgG2 (antibody)
heavy: QVQLVESGGGVVQPGRSLRLSCAASGFTFNNYWMTWVRQAPGKGLEWVASITKAGGSTYYADSVKGRFTISRDNSKSTLYLQMNSLRAEGTAVYYCTRELGEFYVMDAWGQGTTVTVSSASTKGPSVFPLAPCSRSTSESTAALGCLVKDYFPEPVTVSWNSGALTSGVHTFPAVLQSSGLYSLSSVVTVPSSNFGTQTYTCNVDHKPSNTKVDKTVERKCCVECPPCPAPPVAGPSVFLFPPKPKDTLMISRTPEVTCVVVDVSHEDPEVQFNWYVDGVEVHNAKTKPREEQFNSTFRVVSVLTVVHQDWLNGKEYKCKVSNKGLPAPIEKTISKTKGQPREPQVYTLPPSREEMTKNQVSLTCLVKGFYPSDIAVEWESNGQPENNYKTTPPMLDSDGSFFLYSKLTVDKSRWQQGNVFSCSVMHEALHNHYTQKSLSLSPGK
light: B2 light with S30N, N31T, N32Y, Q38E, A43T, H49Y, Y91H, L96F, V104L

Changes are numbered by the printed parent chain.

The test concerns the target human CD147 endogenously expressed on human cancer cell lines (human), P35613. Briefly: cell-based or functional assay.
On to B1, for which the ratio of the phosphorylated p38MAPK signal to the detected p38MAPK signal, HepG2 cells, 10 ug/ml, 15 minutes (fold of the human IgG treated group) was more than 2.
Turning to B2, the ratio of the phosphorylated p38MAPK signal to the detected p38MAPK signal, HepG2 cells, 10 ug/ml, 15 minutes (fold of the human IgG treated group) is more than 2.
With B3, the ratio of the phosphorylated p38MAPK signal to the detected p38MAPK signal, HepG2 cells, 10 ug/ml, 15 minutes (fold of the human IgG treated group) is more than 2.
